# Source: US20240369578A1 (NEURO BIO, published 2024)
# B1: T14 peptide (AChE-derived peptide, SEQ ID No:3) (peptide)
# peptide: AEFHRWSSYMVHWK
# notes: In the assays this was endogenous T14 in human brain tissue, CSF or plasma; Synthetic T14 served as the positive control and standard
# Biological target: T1, alpha-7 nicotinic receptor (human, UniProt P36544 23-502)
# T1 construct: Endogenous receptor in human brain homogenate, captured by biotinylated BTX on SA-donor beads in the AlphaLISA; also called alpha-7 receptor
# Assay: AlphaLISA of T14-alpha-7 complex in human hippocampal tissue lysate (biotinylated BTX on SA-donor beads, anti-T14 on acceptor beads)
# Experimental: Samples were extracted from homogenized human brain tissue using PerkinElmer lysis buffer and the protein concentration determined using the BCA method. For 100 mg tissue homogenization, 1 mL of lysis buffer was used. Five cycles of 40 second pulse, and 10 second breaks, on a shielded homogenizer were used for each sample. Samples were centrifuged at […], 15000 rpm (15 minutes) for supernatants; these were diluted in PerkinElmer Assay buffer and used to measure T14-alpha-7 nicotinic receptor complexes in the presence of NBP14 (concentrations 0.065 μM-900 μM) with AlphaLISA following the manufacturer's protocol. The antibodies were biotinylated BTX on SA-donor beads and anti-rabbit T14 on acceptor beads; results read in an AlphaLISA Reader.
# T1 sequence (P36544 23-502 limits assumed): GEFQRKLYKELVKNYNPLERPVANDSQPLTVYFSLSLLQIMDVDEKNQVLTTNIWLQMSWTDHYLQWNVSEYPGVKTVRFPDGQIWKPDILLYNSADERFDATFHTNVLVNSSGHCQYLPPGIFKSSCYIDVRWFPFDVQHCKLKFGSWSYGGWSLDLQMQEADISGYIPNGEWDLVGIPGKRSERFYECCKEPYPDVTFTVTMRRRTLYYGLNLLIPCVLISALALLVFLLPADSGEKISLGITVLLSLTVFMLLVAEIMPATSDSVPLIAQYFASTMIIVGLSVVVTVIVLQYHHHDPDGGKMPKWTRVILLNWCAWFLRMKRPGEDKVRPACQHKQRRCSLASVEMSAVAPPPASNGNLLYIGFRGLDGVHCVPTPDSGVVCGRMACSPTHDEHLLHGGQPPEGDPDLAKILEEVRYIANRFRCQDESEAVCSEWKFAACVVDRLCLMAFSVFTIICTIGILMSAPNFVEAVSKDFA
binder,measurement,value
B1,binding result,binds
